# Laboratory results reported in the RNAGym collection of RNA variant scans (doi:10.1093/molbev/msab373).
# B1: Azoarcus group I ribozyme (parent)
# chain: GUGCCUUGCGCCGGGAAACCACGCAAGGGAUGGUGUCAAAUUCGGCGAAACCUAAGCGCCCGCCCGGGCGUAUGGCAACGCCGAGCCAAGCUUCGGCGCCUGCGCCGAUGAAGGUGUAGAGACUAGACGGCACCCACCUAAGGCAAACGCUAUGGUGAAGGCAUAGUCCAGGGAGUGGCGAAAGUCACACAAACCGG
# Variants of: B1
# Test: reverse-splicing fitness (ratio to wild type); higher = more active; in vitro selection; Mg2+ level not given
# Summary of the method: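 An in vitro group I ribozyme library with randomized positions was T7-transcribed and gel-purified. In triplicate, 10 pmol RNA in EPPS pH 7.5 was reacted with 50 pmoles of a 30-nt RNA substrate for 1 h at 37 °C across several added MgCl2 levels (1–48 mM), then stopped with EDTA. Products were reverse transcribed from a substrate-complementary primer, PCR-amplified and sequenced (HiSeq 4000). Fitness is a variant's read proportion after selection over that before, normalised to wild type.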
row,Variant,reverse-splicing fitness
1,C82G A120G A145C C150A C169U U176C,0.0106
2,C82G A120G A145C C150A C169U U176A,0.0196
3,C82G A120G A145C C150A C169U U176G,0.00463
4,C82G A120U A145C C150A C169A U176G,0.00157
5,C82G A120U A145C C150A C169A U176A,0.0017
6,C82G A120U A145C C150A C169A U176C,0.00208
7,C82G A120G C150A C169U U176G,0.00754
8,C82G A120G C150A C169U U176C,0.02
9,C82G A120G C150A C169U U176A,0.0248
10,C82G A120G A145C C150U C169A U176A,0.0126
11,C82G A120G A145C C150U C169A U176C,0.00669
12,C82G A120G A145C C150U C169A U176G,0.00471
13,C82G A120C A145U C169U U176C,0.0154
14,C82G A120C A145U C169U U176G,0.00344
15,C82G A120C A145U C169U U176A,0.0158
16,C82G A120C C150G U176G,0.00413
17,C82G A120C C150G U176C,0.0138
18,C82G A120C C150G U176A,0.00858
19,C82G A120G A145C C150A U176C,0.00828
20,C82G A120G A145C C150A U176G,0.00453
21,C82G A120G A145C C150A U176A,0.0102

row,Variant,reverse-splicing fitness
1,C82G A120G A145U C150U C169A U176G,0.00467
2,C82G A120G A145U C150U C169A U176C,0.0133
3,C82G A120G A145U C150U C169A U176A,0.0161
4,C82G A120G C150A C169A U176A,0.0208
5,C82G A120G C150A C169A U176C,0.0244
6,C82G A120G C150A C169A U176G,0.00604
7,C82G A120G A145C C150G C169G U176G,0.00412
8,C82G A120G A145C C150G C169G U176C,0.00761
9,C82G A120G A145C C150G C169G U176A,0.00772
10,C82G A120G A145C C150A C169A U176G,0.00483
11,C82G A120G A145C C150A C169A U176A,0.0119
12,C82G A120G A145C C150A C169A U176C,0.00516
13,C82G A120C C150U U176G,0.0136
14,C82G A120C C150U U176A,0.0429
15,C82G A120C C150U U176C,0.0574
16,C82G A120G U176A,0.0149
17,C82G A120G U176G,0.00803
18,C82G A120G U176C,0.0208
19,C82G A120G A145C C150U C169G U176A,0.0238
20,C82G A120G A145C C150U C169G U176G,0.00426
21,C82G A120G A145C C150U C169G U176C,0.0128

row,Variant,reverse-splicing fitness
1,C82G A120C C169A U176A,0.0185
2,C82G A120C C169A U176G,0.00393
3,C82G A120C C169A U176C,0.0179
4,C82G A120G A145G C169A U176C,0.0269
5,C82G A120G A145G C169A U176A,0.0185
6,C82G A120G A145G C169A U176G,0.00439
7,C82G A120C A145U U176C,0.0999
8,C82G A120C A145U U176A,0.0752
9,C82G A120C A145U U176G,0.0177
10,C82G A120G A145U C150A C169A U176C,0.0141
11,C82G A120G A145U C150A C169A U176A,0.014
12,C82G A120G A145U C150A C169A U176G,0.00465
13,C82G A120G C150A U176A,0.0119
14,C82G A120G C150A U176G,0.0105
15,C82G A120G C150A U176C,0.0195
16,C82G A120G C150G C169A,0.00981
17,C82G A120G C150G C169G,0.00959
18,C82G A120G C150G C169U,0.00956
19,C82G A120C C150G C169G U176A,0.0067
20,C82G A120C C150G C169G U176G,0.00538
21,C82G A120C C150G C169G U176C,0.00574

row,Variant,reverse-splicing fitness
1,C82G A120C A145U C169U,0.0247
2,C82G A120G A145U C150A U176G,0.00553
3,C82G A120G A145U C150A U176C,0.0139
4,C82G A120G A145U C150A U176A,0.0105
5,C82G A120G A145G C150G C169U,0.0109
6,C82G A120G A145G C150G C169A,0.0111
7,C82G A120G A145G C150G C169G,0.0108
8,C82G A120G A145G C150U C169A U176A,0.0171
9,C82G A120G A145G C150U C169A U176G,0.00521
10,C82G A120G A145G C150U C169A U176C,0.0181
11,C82G A120G A145G C150G C169A U176A,0.013
12,C82G A120G A145G C150G C169A U176G,0.0077
13,C82G A120G A145G C150G C169A U176C,0.013
14,C82G A120G C150G U176G,0.00387
15,C82G A120G C150G U176C,0.0105
16,C82G A120G C150G U176A,0.00652
17,C82G A120G C150U C169U U176G,0.00651
18,C82G A120G C150U C169U U176A,0.023
19,C82G A120G C150U C169U U176C,0.0203
20,C82G A120G A145U C150U U176C,0.0189
